Assays:
[1] = target: MVM capsid protein VP2 (stably expressed in human fibroblasts, HF-VPs) (Minute Virus of Mice, prototype strain (MVMp)); assay: cross-linking; clarified cell homogenates in HNEM buffer (50 mM Hepes pH 8.0, 150 mM NaCl, 2 mM MgCl2, 1 mM EDTA) cross-linked with 10 mM dimethyl suberimidate (DMS), 10 min at 20°C; 5% SDS-PAGE and Western blot with the α-VPs antibody; MF-VPs quiescent by serum starvation (G0) or 8 h after serum addition (S); HF-VPs at hours after release of density arrest (G1)
[2] = target: MVM capsid protein VP2 (stably expressed in mouse fibroblasts, MF-VPs) (Minute Virus of Mice, prototype strain (MVMp)); assay: as above

| Substance | stoichiometry N [1] | stoichiometry N [2] |
| --- | --- | --- |
| MVM capsid protein VP2 (stably expressed in human fibroblasts, HF-VPs) (natural protein) | 3 |  |
| MVM capsid protein VP2 (stably expressed in mouse fibroblasts, MF-VPs) (natural protein) |  | 3 |

From paper PMC4466232
